Reference: US6116237A, “Methods of dry powder inhalation” (priority 1997, dated 2000)

Experiment: Systemic delivery of calcitonin as model peptide following dosing with the Spiros system, compared to subcutaneous injection
Type: in vivo
Settings: calcitonin/lactose blend, estimated
From the text: 5. Using calcitonin as a model peptide for systemic delivery, the bioactivity following dosing with the Spiros system has been estimated to be greater than 20% compared to a subcutaneous injection.

Substance: calcitonin
- bioactivity following dosing with the Spiros system compared to a subcutaneous injection (systemic availability): greater than 20%
